# Reference: US20150344583A1
# Tests used:
# [1] = target: human BCMA (huBCMA) on cells (human) (UniProt Q02223); test: FACS, hu BCMA
# [2] = target: TACI on transiently transfected cells (human) (UniProt O14836); test: FACS, hu TACI
# [3] = target: human BCMA (huBCMA) on cells (human) (UniProt Q02223); test: APRIL blocking
# [4] = target: cynomolgus (Macaca fascicularis) BCMA on cells (cynomolgus (Macaca fascicularis)); test: FACS, Cyno BCMA
# [5] = target: cynomolgus (Macaca fascicularis) BCMA on cells (cynomolgus (Macaca fascicularis)); test: CynoBCMA O/N FACS
# [6] = target: recombinant soluble human BCMA (rhu BCMA), analyte of the Example 2 Biacore assay (human) (UniProt Q02223); test: SPR (BIAcore 3000), steady state fit, antibody captured, rhu BCMA as analyte
# Chain of recombinant soluble human BCMA (rhu BCMA), analyte of the Example 2 Biacore assay (human) (Q02223 1-54 limits assumed): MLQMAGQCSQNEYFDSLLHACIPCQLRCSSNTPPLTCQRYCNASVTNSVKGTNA
# Chain of human BCMA (huBCMA) on cells (human) (Q02223 whole entry N81S): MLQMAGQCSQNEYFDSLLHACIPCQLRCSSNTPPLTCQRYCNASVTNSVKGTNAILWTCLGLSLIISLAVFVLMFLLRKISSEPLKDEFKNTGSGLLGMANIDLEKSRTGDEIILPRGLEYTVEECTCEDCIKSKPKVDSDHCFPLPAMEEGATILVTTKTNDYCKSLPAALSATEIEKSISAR
# Chain of cynomolgus (Macaca fascicularis) BCMA on cells (cynomolgus (Macaca fascicularis)) (Q02223 other isoform, or with tags, fused parts or gaps): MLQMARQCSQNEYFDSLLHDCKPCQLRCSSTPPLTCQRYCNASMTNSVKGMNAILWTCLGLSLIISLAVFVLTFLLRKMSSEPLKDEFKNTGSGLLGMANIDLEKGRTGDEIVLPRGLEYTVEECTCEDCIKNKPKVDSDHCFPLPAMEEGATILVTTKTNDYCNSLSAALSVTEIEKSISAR
# Chain of TACI on transiently transfected cells (human) (O14836 whole entry): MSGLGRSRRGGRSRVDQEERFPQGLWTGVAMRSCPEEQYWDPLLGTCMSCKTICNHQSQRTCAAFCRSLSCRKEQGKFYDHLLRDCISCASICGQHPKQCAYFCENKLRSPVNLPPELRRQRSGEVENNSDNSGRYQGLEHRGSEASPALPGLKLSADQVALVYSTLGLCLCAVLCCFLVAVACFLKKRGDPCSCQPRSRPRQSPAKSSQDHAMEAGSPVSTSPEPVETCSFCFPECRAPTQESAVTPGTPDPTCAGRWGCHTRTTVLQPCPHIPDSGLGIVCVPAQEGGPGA
MFI [1] [MFI],MFI [2] [MFI],% Inhibition n=1 [3] [%],% Inhibition n=2 [3] [%],Avg. % Inhibition [3] [%],MFI [4] [MFI],MFI [5] [MFI],Kd [6] [nM],Binder
132000,1890,68,88,78,238000,109,–,"33C7 (antibody, from a related filing, V domains shown) VH: EVQLLESGGALVQPGGSLRLSCAASGFTFSSYAMNWVRQAPGKGLEWVSAISVGGDTYYADSVKGRFTISRDNSKNTLYLHVNSLSAEDSAVYYCAKDQVTLVRGVWYYYGLDVWGQGTTVTVSS VL: VIVLIQSPLSLPVTPGEPASISCRSSQSLLHSNGNNYLDWYLQKPGQSPHLLISLGSNRTSGVPDRFSGSGSGTDFTLKISRVEAEDVGFYYCMQALQPPRRFGQGTKLEIKR"
–,–,–,–,–,–,–,36.1,"11F12 (antibody, from a related filing, IgG1, V domains shown) VH: QVQLVESGGGVVQPGRSLRLSCAASGFTFSSYGLHWVRQAPGKGLEWVALISYDGSNKYYADSVKGRFTISRDNSKNTLYLQMNSLRAEDTAVYYCWYSSSWTPLDYWGQGTLVTVSS VL: DIQMTQSPSSLSASVGDRVTITCRASQGIRNDLGWYQQKPGKAPKRLIYAASSLQSGVPSRFSGSGSGTEFTLTISSLQPEDFATYYCLQYYSYPLTFGGGTKVEIKR"
